Data published in patent US20070224662.

Target: inactive (non-phosphorylated) HIS-tagged MAPK14
Sequence (chain, as listed by the source): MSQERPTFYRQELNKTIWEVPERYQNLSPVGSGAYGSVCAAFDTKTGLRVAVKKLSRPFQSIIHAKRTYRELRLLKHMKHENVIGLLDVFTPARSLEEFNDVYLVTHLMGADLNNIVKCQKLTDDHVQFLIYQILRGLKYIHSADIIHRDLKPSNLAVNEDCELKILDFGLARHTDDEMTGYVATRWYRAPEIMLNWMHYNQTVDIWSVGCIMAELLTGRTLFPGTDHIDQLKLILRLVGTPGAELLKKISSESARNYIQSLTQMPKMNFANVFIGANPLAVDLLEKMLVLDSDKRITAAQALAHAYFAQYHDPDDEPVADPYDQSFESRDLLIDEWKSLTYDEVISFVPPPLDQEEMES

B1: MKK6 (no-tag upstream kinase) (protein)
chain: MSQSKGKKRNPGLKIPKEAFEQPQTSSTPPRDLDSKACISIGNQNFEVKADDLEPIMELGRGAYGVVEKMRHVPSGQIMAVKRIRATVNSQEQKRLLMDLDISMRTVDCPFTVTFYGALFREGDVWICMELMDTSLDKFYKQVIDKGQTIPEDILGKIAVSIVKALEHLHSKLSVIHRDVKPSNVLINALGQVKMCDFGISGYLVDSVAKTIDAGCKPYMAPERINPELNQKGYSVKSDIWSLGITMIELAILRFPYDSWGTPFQQLKQVVEEPSPQLPADKFSAEFVDFTSQCLKKNSKERPTYPELMQHPFFTLHESKGTDVASFVKLILGD
- amount of phosphorylated MAPK14, Western blot with the p38 antibody, at decreasing MKK6 plasmid (FIG. 3): as the concentration of the MKK6 plasmid present in the reaction was decreased, the amount of phosphorylation MAPK14 similarly decreased
- phosphorylation of MAPK14, Western blot with anti-phospho-p38 antibody (FIG. 2): co-expression of MAPK14 with MKK6 in the presence of an HEK 293 cell extract greatly enhances the phosphorylation of proteins present in the reaction
